According to paper PMC3273806:
One block for each substance: values may come before it.

What was measured:
[1] = target: FLAG-tagged RAD18 expressed in human cells (human) (UniProt Q9NS91); assay: quantitative western blotting against a reference complex
[2] = target: human RAD18, wild type, His-tagged or FLAG-tagged (human) (UniProt Q9NS91); assay: quantitative SDS-PAGE
[3] = target: ^HisRAD18^ΔN1 (residues 113-495) (human) (UniProt Q9NS91); assay: quantitative SDS-PAGE
[4] = target: RAD18^ΔC1 (residues 1-341), His-tagged or FLAG-tagged (human) (UniProt Q9NS91); assay: quantitative SDS-PAGE
RAD18^ΔC1 (residues 1-341), His-tagged or FLAG-tagged (human), sequence (Q9NS91 1-341, stated change not applied): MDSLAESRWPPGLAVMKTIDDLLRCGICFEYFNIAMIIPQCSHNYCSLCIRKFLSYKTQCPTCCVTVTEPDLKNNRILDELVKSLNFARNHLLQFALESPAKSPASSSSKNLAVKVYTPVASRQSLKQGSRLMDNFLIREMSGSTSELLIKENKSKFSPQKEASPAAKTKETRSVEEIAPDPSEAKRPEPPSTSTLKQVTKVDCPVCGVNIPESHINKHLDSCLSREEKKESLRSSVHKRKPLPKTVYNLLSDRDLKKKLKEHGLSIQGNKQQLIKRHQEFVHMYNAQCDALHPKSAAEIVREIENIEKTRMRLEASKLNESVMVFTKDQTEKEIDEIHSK

[5] = target: untagged RAD18 expressed in human cells (human) (UniProt Q9NS91); assay: quantitative western blotting against a reference complex
untagged RAD18 expressed in human cells (human), sequence (Q9NS91 whole entry): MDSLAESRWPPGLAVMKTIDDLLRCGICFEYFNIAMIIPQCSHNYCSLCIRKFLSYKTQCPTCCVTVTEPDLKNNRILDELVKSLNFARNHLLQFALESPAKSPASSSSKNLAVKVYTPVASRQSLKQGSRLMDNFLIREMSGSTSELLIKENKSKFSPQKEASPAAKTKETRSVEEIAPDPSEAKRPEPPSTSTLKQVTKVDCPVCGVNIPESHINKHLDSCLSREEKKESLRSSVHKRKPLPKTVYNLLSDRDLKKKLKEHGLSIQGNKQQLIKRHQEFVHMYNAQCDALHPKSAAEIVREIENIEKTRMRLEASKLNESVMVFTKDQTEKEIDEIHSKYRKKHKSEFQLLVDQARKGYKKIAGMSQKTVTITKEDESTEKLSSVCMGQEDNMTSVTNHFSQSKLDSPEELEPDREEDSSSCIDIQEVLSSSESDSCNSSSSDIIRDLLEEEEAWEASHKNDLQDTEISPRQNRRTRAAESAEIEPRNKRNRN

human RAD18, wild type, His-tagged or FLAG-tagged, sequence (Q9NS91 whole entry): as above
FLAG-tagged human RAD6A, sequence (P49459 whole entry): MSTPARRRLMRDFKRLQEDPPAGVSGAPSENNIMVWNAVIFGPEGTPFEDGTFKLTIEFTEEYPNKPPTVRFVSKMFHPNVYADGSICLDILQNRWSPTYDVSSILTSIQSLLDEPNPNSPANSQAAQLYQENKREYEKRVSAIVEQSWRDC
untagged RAD6A expressed in human cells, sequence (P49459 whole entry): as above
human RAD6A, sequence (P49459 whole entry): as above
HA-tagged RAD6A expressed in human cells, sequence (P49459 whole entry): as above
FLAG-tagged RAD18 expressed in human cells (human), sequence (Q9NS91 whole entry): as the sequence (Q9NS91 whole entry) above
human RAD18, wild type, His-tagged or FLAG-tagged (human), sequence (Q9NS91 whole entry, the tested form may be a part): as the sequence (Q9NS91 whole entry) above
FLAG-tagged RAD18 expressed in human cells, sequence (Q9NS91 whole entry): as above
untagged RAD18 expressed in human cells, sequence (Q9NS91 whole entry): as above
^HisRAD18^ΔN1 (residues 113-495) (human), sequence (Q9NS91 113-495, stated change not applied): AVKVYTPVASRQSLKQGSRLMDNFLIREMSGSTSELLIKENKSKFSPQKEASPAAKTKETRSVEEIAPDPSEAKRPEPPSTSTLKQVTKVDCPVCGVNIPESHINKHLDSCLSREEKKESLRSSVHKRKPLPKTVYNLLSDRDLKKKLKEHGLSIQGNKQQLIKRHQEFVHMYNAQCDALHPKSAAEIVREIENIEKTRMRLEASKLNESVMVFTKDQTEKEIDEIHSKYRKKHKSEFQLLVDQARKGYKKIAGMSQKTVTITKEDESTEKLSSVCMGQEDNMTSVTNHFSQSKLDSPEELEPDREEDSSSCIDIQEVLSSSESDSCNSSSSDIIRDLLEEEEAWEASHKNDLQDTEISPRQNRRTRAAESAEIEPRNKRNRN

Substance: human RAD18, wild type, His-tagged or FLAG-tagged (from UniProt Q9NS91 1-495) (enzyme)
stoichiometry N (FLAGRAD18 per HisRAD18ΔC1) [4]: 1 | ratio of HisRAD18 to FLAGRAD18 in the complex (HisRAD18 per FLAGRAD18) [2]: 1

Substance: untagged RAD6A expressed in human cells (from UniProt P49459 1-152) (enzyme)
stoichiometry N (RAD6A per RAD18) [5]: 0.5

Substance: untagged RAD18 expressed in human cells (from UniProt Q9NS91 1-495) (enzyme)
stoichiometry N [5]: 2

The remaining lines, values ahead:

stoichiometry N [1]: 2
Substance: FLAG-tagged RAD18 expressed in human cells (from UniProt Q9NS91 1-495) (enzyme)

stoichiometry N (RAD6A per RAD18) [2]: 0.5
Substance: FLAG-tagged human RAD6A (from UniProt P49459 1-152) (enzyme)

stoichiometry N (RAD6A per RAD18) [1]: 0.5
Substance: HA-tagged RAD6A expressed in human cells (from UniProt P49459 1-152) (enzyme)

stoichiometry N (RAD6A per HisRAD18ΔN1) [3]: 1
Substance: human RAD6A (from UniProt P49459 1-152) (enzyme)
